The record followed here is patent US20150376264A1 (CALIFORNIA INSTITUTE FOR BIOMEDICAL RESEARCH, published 2015).

The target in the experiment is Leptin receptor. Description: cell-based or functional assay.

B1: BLV1H12 hLeptin fusion protein (antibody, human IgG1)
heavy: not shown
light: QAVLNQPSSVSGSLGQRVSITCSGSSSNVGNGYVSWYQLIPGSAPRTLIYGDTSRASGVPDRFSGSRSGNTATLTISSLQAEDEADYFCASAEDSSSNAVFGSGTTLTVLGQPKSPPSVTLFPPSTEELNGNKATLVCLISDFYPGSVTVVWKADGSTITRNVETTRASKQSNSKYAASSYLSLTSSDWKSKGSYSCEVTHEGSTVTKTVKPSECS
With B1, the “EC50 (Baf3-LepR cell proliferation, AlamarBlue)” value was found to be 0.0575 nM.
